Source: patent US20110182926A1, “[…]” (priority 2008, published 2011)

What was measured:
[1] = biological target: T1, HLA-A*0201 (Homo sapiens, UniProt P04439, D140Y/D185E/D98H/E176V/E277Q/G131W/G231S/I119V/I121R/I166T/I218V/L300P/L318F/N151K/N90K/P208A/P217A/Q86G/Q94H/R138H/R169H/T345S); assay: iTopia Epitope Discovery System binding affinity; details: hTERT analogs; FIG. 8
Description: (§1) Candidate epitopes and analogs are analyzed for the ability to bind to HLA-A*0201in-vitro using iTopia™ Epitope Discovery System (http://www.immunomics.com). This assay provides a method to determine the binding affinity and stability of a test peptide to any of several Class I HLA molecules, using fluorescent-labeled antibody that specifically recognizes HLA only when peptide is bound in the MHC-I groove.
as §1, with “HLA-A*0201 in-vitro” for “HLA-A*0201in-vitro”

[2] = test system: HHD mice; assay: Immunogenicity of additional CEA peptides in HHD mice (Example 9, ICS for IFNγ); format: in vivo; details: for immunogenicity (immune response against the natural target epitope): 6 HHD mice, 100 μg peptide s.c., two injections, ICS IFNγ three weeks later; for immunogenicity (immune response against the natural target epitope) / fold more immunogenic than the natural peptide: FIG. 7; for fold more immunogenic than the natural peptide: HHD mice, ICS IFNγ
[3] = biological target: T1, HLA-A*0201; assay: HLA-A*0201/peptide complex stability on T2 cells over time (FACS); format: binding; details: 50 μM peptide, 0-8 hours, FIG. 4
Description: To assess the HLA-A*0201/peptide complex stability, T2 cells (10^6/mL) were incubated overnight with 50 μM of each peptide in serum-free RPMI 1640 supplemented with 100 ng/mL human β2m at 37° C. Cells were then washed 4 times to remove free peptides, incubated for 1 hour with 10 ng/mL Brefeldin A (Sigma-Aldrich) to block cell surface expression of newly synthesized HLA-A*0201 molecules, washed, and incubated at 37° C. for 0, 2, 4, 6, or 8 hours. Subsequently, cells were stained with anti-HLA-A2.1 mAb BB7.2. For each time point, peptide-induced HLA-A*0201 expression was calculated as mean fluorescence value of peptide incubated T2 cells/mean fluorescence value T2 cells in the absence of the peptide. Dissociation complex 50 (DC50) was defined as the time required for the loss of 50% of the HLA-A*0201/peptide complexes stabilized at t=0.
Binding stability of the peptide-MHC complex was also evaluated over time. The CAP-1 peptide was used as positive control.

[4] = biological target: T1, HLA-A*0201; assay: In vitro cellular binding assay of CEA peptides on TAP-deficient T2 cells (FACS); details: 50 μM peptide, 18 hours at 37° C., FIG. 3
Description: To determine the binding ability of EI Suite-selected wild type peptides and analogs, an in vitro cellular binding assay was performed using the TAP-deficient cell line T2. T2 cells are HLA-A*0201 positive, MHC class II negative and TAP deficient, meaning that they lack a functional transporter associated with antigen presentation, so that they accumulate empty unstable class I molecules.
T2 cells were incubated with 50 μM peptide in serum-free RPMI 1640 supplemented with 5 μg/mL human β2m (Fluka) for 18 hours at 37° C. HLA-A*0201 expression was then measured by flow cytometry using the anti-HLA-A2.1 monoclonal antibody (mAb) BB7.2 followed by incubation with fluorescein isothiocyanate (FITC)-conjugated F(ab′)2 goat antimouse Ig (Biosource). The results are expressed as fluorescence index (FI) defined as a ratio (median channel of fluorescence) between the sample and a control without any peptide. An increase over the control of at least […] (FI>2) was arbitrarily chosen as the cutoff point.

[5] = biological target: T2, HLA-A*0201 (iTopia Epitope Discovery System) (human); assay: iTopia Epitope Discovery System binding assay
T2 construct: Commercial in vitro assay; also called Class I HLA molecule
Source text: This assay provides a method to determine the binding affinity and stability of a test peptide to any of several Class I HLA molecules, using fluorescent-labeled antibody that specifically recognizes HLA only when peptide is bound in the MHC-I groove.

[6] = biological target: T3, HLA-A*0201 on T2 cells (human); assay: T2 cells, 50 uM peptide, surface HLA-A2 by FACS with BB7.2
T3 construct: Empty class I molecule on T2 cells; also called HLA-A2.1; A2.1

[7] = biological target: T3, HLA-A*0201 on T2 cells; assay: assay not named there (T2 cell binding per paragraph 90)
Description: T2 cells were incubated with 50 μM peptide in serum-free RPMI 1640 supplemented with 5 μg/mL human β2m (Fluka) for 18 hours at 37° C. […] The results are expressed as fluorescence index (FI) defined as a ratio (median channel of fluorescence) between the sample and a control without any peptide. An increase over the control of at least 65% (FI>2) was arbitrarily chosen as the cutoff point.

With “540.V10: hTERT position 540 10-mer V10 analog of ILAKFLHWLM, SEQ ID NO 17 (ILAKFLHWLV)” the “binding affinity to HLA-A*0201 compared to the corresponding wild type peptide” value [1] was “increase in binding affinity”.

In the case of “RLTVTTITV (Anchor-modified analog) [CEA310L2]”, the “immunogenicity (immune response against the natural target epitope)” value (“immunogenicity” below) [2] is reported as “extremely powerful in eliciting a cross reactive immune response” and the “fold more immunogenic than the natural peptide” value [2] is reported as 123 fold.

For ATVGIMIGV [CEA687], the “immunogenicity” value [2] was “significantly immunogenic” and the “mice responding to the vaccination” value ([2]; groups of 6 HHD mice) was 4 out of 6.

With “GLSAGATVGV (Anchor-modified analog) [682V10]” the “stability of peptide-MHC complex compared to wild-type counterpart” value [3] was “improved stability” and the “binding to HLA-A*0201 compared to wild-type counterpart” value [4] was “marked increase of binding”.

In the case of “688.L2: hTERT position 688 10-mer L2 analog of RAWRTFVLRV, SEQ ID NO 20 (RLWRTFVLRV)”, the “binding affinity to HLA-A*0201 compared to the corresponding wild type peptide” value [1] is reported as “increase in binding affinity”.

With “540.V9: hTERT position 540 9-mer V9 analog of ILAKFLHWL, SEQ ID NO 15 (ILAKFLHWV)” the “binding affinity to HLA-A*0201 compared to the corresponding wild type peptide” value [1] was “increase in binding affinity”.

For “VLYGPDDPTV (Anchor-modified analog) [411V10]”, the “stability of peptide-MHC complex compared to wild-type counterpart” value [3] was “improved stability” and the “binding to HLA-A*0201 compared to wild-type counterpart” value [4] was “marked increase of binding”.

With “GLMIGVLVGV (Anchor-modified analog) [690L2]” the “binding to HLA-A*0201 compared to wild-type counterpart” value [4] was “marked increase of binding”.

In the case of IMIGVLVGV [CEA691], the “immunogenicity” value [2] is reported as “immunogenic”.

With “GLNRTTVTTV (Anchor-modified analog) [307V10]” the “binding to HLA-A*0201 compared to wild-type counterpart” value [4] was “marked increase of binding”.

ALVGIMIGV [CEA687L2] was tested, and the “fold more immunogenic than the natural peptide” value [2] was “about 3.4 fold” and the “mice responded to the treatment” value ([2]; groups of 6 HHD mice) was 100%.

B1: hTERT position 30, 9-mer, w.t. (RLGPQGWRL) (peptide)
peptide: RLGPQGWRL
notes: Fragment of hTERT (SwissProt O14746, printed); The range is worked out from the printed position and length
B1 was tested, and the “binding affinity (% of positive control)” value [5] was 30 % of the positive control.

B2: hTERT position 540, 10-mer, w.t. (ILAKFLHWLM) (peptide)
peptide: ILAKFLHWLM
notes: Fragment of hTERT (SwissProt O14746, printed)
B2 was tested, and the “binding affinity (% of positive control)” value [5] was 30 % of the positive control.

B3: CEA.690L2 (GLMIGVLVGV) (peptide)
peptide: GLMIGVLVGV
notes: Anchor-modified analog of a CEA peptide; leucine at position 2
B3: binds [6].

IMIGVLVGV (Wild type CEA 9-mer) [CEA.691 (IMIGVLVGV)]: binds [7].

B4: hTERT.934, 9-mer, w.t. (LLDTRTLEV) (peptide)
peptide: LLDTRTLEV
notes: as for B1
With B4 the “binding affinity (% of positive control)” value [5] was 30 % of the positive control.

B5: hTERT position 865, 9-mer, w.t. (RLVDDFLLV) (peptide)
peptide: RLVDDFLLV
notes: as for B1
For B5, the “binding affinity (% of positive control)” value [5] was 30 % of the positive control.

FLVDDFLLV (type F1) [hTERT 865.F1 analog]: binds [5].

B6: hTERT position 986, 9-mer, w.t. (FLDLQVNSL) (peptide)
peptide: FLDLQVNSL
notes: as for B1
B6 was tested, and the “binding affinity (% of positive control)” value [5] was 30 % of the positive control.

B7: hTERT position 688, 10-mer, w.t. (RAWRTFVLRV) (peptide)
peptide: RAWRTFVLRV
notes: as for B1
In the case of B7, the “binding affinity (% of positive control)” value [5] is reported as 30 % of the positive control.

GLNRTTVTTV (Anchor-modified analog of a CEA peptide) [CEA.307V10 (GLNRTTVTTV)]: binds [6].

B8: hTERT position 544, 10-mer, w.t. (FLHWLMSVYV) (peptide)
peptide: FLHWLMSVYV
notes: as for B1
B8 was tested, and the “binding affinity (% of positive control)” value [5] was 30 % of the positive control.

B9: hTERT position 540, 9-mer, w.t. (ILAKFLHWL) (peptide)
peptide: ILAKFLHWL
notes: as for B1
With B9 the “binding affinity (% of positive control)” value [5] was 30 % of the positive control.

ILAKFLHWV (type V9) [hTERT 540.V9 analog]: binds [5].

VLYGPDTPIV (Anchor-modified analog of a CEA peptide) [CEA.589V10 (VLYGPDTPIV)]: binds [6].

GLSAGATVGV (Anchor-modified analog of a CEA peptide) [CEA.682V10 (GLSAGATVGV)]: binds [6].
